Numbered stars: 1 amine (or outer) side, 2 acyl side, 3 side chain; on linkers, the order of the positions; unused ones are H or OH. * marks the point of attachment. C20 diacid = O=C(O)CCCCCCCCCCCCCCCCCCC(=O)*; γGlu = O=C(O)[C@H](CCC(=O)[*:2])N[*:1]
T1: human calcitonin receptor (human, UniProt P30988 25-474)
T1 construct: whole, on cells; also called hCT-R; hCTR
T1 sequence (looked up): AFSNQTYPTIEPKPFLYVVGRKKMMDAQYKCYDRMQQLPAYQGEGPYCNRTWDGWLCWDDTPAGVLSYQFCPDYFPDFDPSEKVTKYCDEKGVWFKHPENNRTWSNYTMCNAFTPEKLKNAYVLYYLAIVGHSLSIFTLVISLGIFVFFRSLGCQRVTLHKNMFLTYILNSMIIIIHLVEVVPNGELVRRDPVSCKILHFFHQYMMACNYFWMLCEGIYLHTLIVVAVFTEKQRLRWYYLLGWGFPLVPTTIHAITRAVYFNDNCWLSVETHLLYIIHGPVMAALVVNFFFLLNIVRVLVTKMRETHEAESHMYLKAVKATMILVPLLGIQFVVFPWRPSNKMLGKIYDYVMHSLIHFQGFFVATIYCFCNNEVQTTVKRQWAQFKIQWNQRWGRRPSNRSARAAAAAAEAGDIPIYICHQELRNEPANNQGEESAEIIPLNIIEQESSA


Target: T1, human calcitonin receptor
Assay: whole-cell competition vs 125I-human calcitonin (Assay VIIa)
Outline: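 BHK tk'ts 13 cells stably co-expressing human calcitonin receptor and a CRE-luciferase reporter, seeded overnight at 37 °C. Bound tracer counted by scintillation after cold HBSS washes and NaOH/SDS lysis; IC₅₀ from one-site competition fit taken as receptor affinity.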

| Binder | IC50 |
| --- | --- |
| {C20 diacid-γGlu}-ASELSTAALGRLSAELHELATYPRTETGSGAP-NH2 (SMILES CC(C)C[C@H](NC(=O)[C@H](C)NC(=O)[C@H](C)NC(=O)[C@@H](NC(=O)[C@H](CO)NC(=O)[C@H](CC(C)C)NC(=O)[C@H](CCC(=O)O)NC(=O)[C@H](CO)NC(=O)[C@H](C)NC(=O)CC[C@H](NC(=O)CCCCCCCCCCCCCCCCCCC(=O)O)C(=O)O)[C@@H](C)O)C(=O)NCC(=O)N[C@@H](CCCNC(=N)N)C(=O)N[C@@H](CC(C)C)C(=O)N[C@@H](CO)C(=O)N[C@@H](C)C(=O)N[C@@H](CCC(=O)O)C(=O)N[C@@H](CC(C)C)C(=O)N[C@@H](Cc1c[nH]cn1)C(=O)N[C@@H](CCC(=O)O)C(=O)N[C@@H](CC(C)C)C(=O)N[C@@H](C)C(=O)N[C@H](C(=O)N[C@@H](Cc1ccc(O)cc1)C(=O)N1CCC[C@H]1C(=O)N[C@@H](CCCNC(=N)N)C(=O)N[C@H](C(=O)N[C@@H](CCC(=O)O)C(=O)N[C@H](C(=O)NCC(=O)N[C@@H](CO)C(=O)NCC(=O)N[C@@H](C)C(=O)N1CCC[C@H]1C(N)=O)[C@@H](C)O)[C@@H](C)O)[C@@H](C)O, also called Ex. #81) [[N-terminal(C20 diacid-gGlu), des1, 23Y, 30S, 31G, 32A]mimylin] | 4.93 nM |
| {C20 diacid-γGlu}-ASELSTAALGRLSAELHELATYPRTETGSGSP-NH2 (SMILES CC(C)C[C@H](NC(=O)[C@H](C)NC(=O)[C@H](C)NC(=O)[C@@H](NC(=O)[C@H](CO)NC(=O)[C@H](CC(C)C)NC(=O)[C@H](CCC(=O)O)NC(=O)[C@H](CO)NC(=O)[C@H](C)NC(=O)CC[C@H](NC(=O)CCCCCCCCCCCCCCCCCCC(=O)O)C(=O)O)[C@@H](C)O)C(=O)NCC(=O)N[C@@H](CCCNC(=N)N)C(=O)N[C@@H](CC(C)C)C(=O)N[C@@H](CO)C(=O)N[C@@H](C)C(=O)N[C@@H](CCC(=O)O)C(=O)N[C@@H](CC(C)C)C(=O)N[C@@H](Cc1c[nH]cn1)C(=O)N[C@@H](CCC(=O)O)C(=O)N[C@@H](CC(C)C)C(=O)N[C@@H](C)C(=O)N[C@H](C(=O)N[C@@H](Cc1ccc(O)cc1)C(=O)N1CCC[C@H]1C(=O)N[C@@H](CCCNC(=N)N)C(=O)N[C@H](C(=O)N[C@@H](CCC(=O)O)C(=O)N[C@H](C(=O)NCC(=O)N[C@@H](CO)C(=O)NCC(=O)N[C@@H](CO)C(=O)N1CCC[C@H]1C(N)=O)[C@@H](C)O)[C@@H](C)O)[C@@H](C)O, also called Ex. #56) [[N-terminal(C20 diacid-gGlu), des1, 23Y, 30S, 31G]mimylin] | 2.94 nM |
| {C20 diacid-γGlu}-ASELSTAALGRLSAELHELATLPRTETGSGSG-NH2 (SMILES CC(C)C[C@H](NC(=O)[C@H](C)NC(=O)[C@H](C)NC(=O)[C@@H](NC(=O)[C@H](CO)NC(=O)[C@H](CC(C)C)NC(=O)[C@H](CCC(=O)O)NC(=O)[C@H](CO)NC(=O)[C@H](C)NC(=O)CC[C@H](NC(=O)CCCCCCCCCCCCCCCCCCC(=O)O)C(=O)O)[C@@H](C)O)C(=O)NCC(=O)N[C@@H](CCCNC(=N)N)C(=O)N[C@@H](CC(C)C)C(=O)N[C@@H](CO)C(=O)N[C@@H](C)C(=O)N[C@@H](CCC(=O)O)C(=O)N[C@@H](CC(C)C)C(=O)N[C@@H](Cc1c[nH]cn1)C(=O)N[C@@H](CCC(=O)O)C(=O)N[C@@H](CC(C)C)C(=O)N[C@@H](C)C(=O)N[C@H](C(=O)N[C@@H](CC(C)C)C(=O)N1CCC[C@H]1C(=O)N[C@@H](CCCNC(=N)N)C(=O)N[C@H](C(=O)N[C@@H](CCC(=O)O)C(=O)N[C@H](C(=O)NCC(=O)N[C@@H](CO)C(=O)NCC(=O)N[C@@H](CO)C(=O)NCC(N)=O)[C@@H](C)O)[C@@H](C)O)[C@@H](C)O, also called Ex. #64) [[N-terminal(C20 diacid-gGlu), des1, 30S, 31G, 33G]mimylin] | 3.63 nM |
| {C20 diacid-γGlu}-ASELSTAALGRLSAELHELATLPRTETGSGSF-NH2 (SMILES CC(C)C[C@H](NC(=O)[C@H](C)NC(=O)[C@H](C)NC(=O)[C@@H](NC(=O)[C@H](CO)NC(=O)[C@H](CC(C)C)NC(=O)[C@H](CCC(=O)O)NC(=O)[C@H](CO)NC(=O)[C@H](C)NC(=O)CC[C@H](NC(=O)CCCCCCCCCCCCCCCCCCC(=O)O)C(=O)O)[C@@H](C)O)C(=O)NCC(=O)N[C@@H](CCCNC(=N)N)C(=O)N[C@@H](CC(C)C)C(=O)N[C@@H](CO)C(=O)N[C@@H](C)C(=O)N[C@@H](CCC(=O)O)C(=O)N[C@@H](CC(C)C)C(=O)N[C@@H](Cc1c[nH]cn1)C(=O)N[C@@H](CCC(=O)O)C(=O)N[C@@H](CC(C)C)C(=O)N[C@@H](C)C(=O)N[C@H](C(=O)N[C@@H](CC(C)C)C(=O)N1CCC[C@H]1C(=O)N[C@@H](CCCNC(=N)N)C(=O)N[C@H](C(=O)N[C@@H](CCC(=O)O)C(=O)N[C@H](C(=O)NCC(=O)N[C@@H](CO)C(=O)NCC(=O)N[C@@H](CO)C(=O)N[C@@H](Cc1ccccc1)C(N)=O)[C@@H](C)O)[C@@H](C)O)[C@@H](C)O, also called Ex. #61) [[N-terminal(C20 diacid-gGlu), des1, 30S, 31G, 33F]mimylin] | 1.76 nM |
| {C20 diacid-γGlu}-ASELSTAALGRLSAELHELATYPRTETGSGSY-OH (also called Ex. #88) [[N-terminal(C20 diacid-gGlu), des1, 23Y, 30S, 31G, 33Y, C-terminal(-)]mimylin] | 24.2 nM |
| {C20 diacid-γGlu}-ASELSTAALGRLSAELHELATLPRTETGSGSL-NH2 (SMILES CC(C)C[C@H](NC(=O)[C@H](CO)NC(=O)CNC(=O)[C@H](CO)NC(=O)CNC(=O)[C@@H](NC(=O)[C@H](CCC(=O)O)NC(=O)[C@@H](NC(=O)[C@H](CCCNC(=N)N)NC(=O)[C@@H]1CCCN1C(=O)[C@H](CC(C)C)NC(=O)[C@@H](NC(=O)[C@H](C)NC(=O)[C@H](CC(C)C)NC(=O)[C@H](CCC(=O)O)NC(=O)[C@H](Cc1c[nH]cn1)NC(=O)[C@H](CC(C)C)NC(=O)[C@H](CCC(=O)O)NC(=O)[C@H](C)NC(=O)[C@H](CO)NC(=O)[C@H](CC(C)C)NC(=O)[C@H](CCCNC(=N)N)NC(=O)CNC(=O)[C@H](CC(C)C)NC(=O)[C@H](C)NC(=O)[C@H](C)NC(=O)[C@@H](NC(=O)[C@H](CO)NC(=O)[C@H](CC(C)C)NC(=O)[C@H](CCC(=O)O)NC(=O)[C@H](CO)NC(=O)[C@H](C)NC(=O)CC[C@H](NC(=O)CCCCCCCCCCCCCCCCCCC(=O)O)C(=O)O)[C@@H](C)O)[C@@H](C)O)[C@@H](C)O)[C@@H](C)O)C(N)=O, also called Ex. #62) [[N-terminal(C20 diacid-gGlu), des1, 30S, 31G, 33L]mimylin] | 2.33 nM |

The next binders have a lower IC50 than those just listed; values first:

| IC50 | Binder |
| --- | --- |
| 0.442 nM | {C20 diacid-γGlu}-ASELSTAALGRLSAELHELATLPHTETGSGSP-NH2 (SMILES CC(C)C[C@H](NC(=O)[C@H](C)NC(=O)[C@H](C)NC(=O)[C@@H](NC(=O)[C@H](CO)NC(=O)[C@H](CC(C)C)NC(=O)[C@H](CCC(=O)O)NC(=O)[C@H](CO)NC(=O)[C@H](C)NC(=O)CC[C@H](NC(=O)CCCCCCCCCCCCCCCCCCC(=O)O)C(=O)O)[C@@H](C)O)C(=O)NCC(=O)N[C@@H](CCCNC(=N)N)C(=O)N[C@@H](CC(C)C)C(=O)N[C@@H](CO)C(=O)N[C@@H](C)C(=O)N[C@@H](CCC(=O)O)C(=O)N[C@@H](CC(C)C)C(=O)N[C@@H](Cc1c[nH]cn1)C(=O)N[C@@H](CCC(=O)O)C(=O)N[C@@H](CC(C)C)C(=O)N[C@@H](C)C(=O)N[C@H](C(=O)N[C@@H](CC(C)C)C(=O)N1CCC[C@H]1C(=O)N[C@@H](Cc1c[nH]cn1)C(=O)N[C@H](C(=O)N[C@@H](CCC(=O)O)C(=O)N[C@H](C(=O)NCC(=O)N[C@@H](CO)C(=O)NCC(=O)N[C@@H](CO)C(=O)N1CCC[C@H]1C(N)=O)[C@@H](C)O)[C@@H](C)O)[C@@H](C)O, also called Ex. #73) [[N-terminal(C20 diacid-gGlu), des1, 25H, 30S, 31G]mimylin] |
| 1.25 nM | {C20 diacid-γGlu}-ASELSTAALGRLSAELHELATLPRTETGSGSA-NH2 (SMILES CC(C)C[C@H](NC(=O)[C@H](C)NC(=O)[C@H](C)NC(=O)[C@@H](NC(=O)[C@H](CO)NC(=O)[C@H](CC(C)C)NC(=O)[C@H](CCC(=O)O)NC(=O)[C@H](CO)NC(=O)[C@H](C)NC(=O)CC[C@H](NC(=O)CCCCCCCCCCCCCCCCCCC(=O)O)C(=O)O)[C@@H](C)O)C(=O)NCC(=O)N[C@@H](CCCNC(=N)N)C(=O)N[C@@H](CC(C)C)C(=O)N[C@@H](CO)C(=O)N[C@@H](C)C(=O)N[C@@H](CCC(=O)O)C(=O)N[C@@H](CC(C)C)C(=O)N[C@@H](Cc1c[nH]cn1)C(=O)N[C@@H](CCC(=O)O)C(=O)N[C@@H](CC(C)C)C(=O)N[C@@H](C)C(=O)N[C@H](C(=O)N[C@@H](CC(C)C)C(=O)N1CCC[C@H]1C(=O)N[C@@H](CCCNC(=N)N)C(=O)N[C@H](C(=O)N[C@@H](CCC(=O)O)C(=O)N[C@H](C(=O)NCC(=O)N[C@@H](CO)C(=O)NCC(=O)N[C@@H](CO)C(=O)N[C@@H](C)C(N)=O)[C@@H](C)O)[C@@H](C)O)[C@@H](C)O, also called Ex. #65) [[N-terminal(C20 diacid-gGlu), des1, 30S, 31G, 33A]mimylin] |
| 1.53 nM | {C20 diacid-γGlu}-ASELSTAALGRLSAELHELATLPRTETGSGSH-NH2 (SMILES CC(C)C[C@H](NC(=O)[C@H](C)NC(=O)[C@H](C)NC(=O)[C@@H](NC(=O)[C@H](CO)NC(=O)[C@H](CC(C)C)NC(=O)[C@H](CCC(=O)O)NC(=O)[C@H](CO)NC(=O)[C@H](C)NC(=O)CC[C@H](NC(=O)CCCCCCCCCCCCCCCCCCC(=O)O)C(=O)O)[C@@H](C)O)C(=O)NCC(=O)N[C@@H](CCCNC(=N)N)C(=O)N[C@@H](CC(C)C)C(=O)N[C@@H](CO)C(=O)N[C@@H](C)C(=O)N[C@@H](CCC(=O)O)C(=O)N[C@@H](CC(C)C)C(=O)N[C@@H](Cc1c[nH]cn1)C(=O)N[C@@H](CCC(=O)O)C(=O)N[C@@H](CC(C)C)C(=O)N[C@@H](C)C(=O)N[C@H](C(=O)N[C@@H](CC(C)C)C(=O)N1CCC[C@H]1C(=O)N[C@@H](CCCNC(=N)N)C(=O)N[C@H](C(=O)N[C@@H](CCC(=O)O)C(=O)N[C@H](C(=O)NCC(=O)N[C@@H](CO)C(=O)NCC(=O)N[C@@H](CO)C(=O)N[C@@H](Cc1c[nH]cn1)C(N)=O)[C@@H](C)O)[C@@H](C)O)[C@@H](C)O, also called Ex. #60) [[N-terminal(C20 diacid-gGlu), des1, 30S, 31G, 33H]mimylin] |

— US20160272683A1 (Novo Nordisk, published 2016)
